Source: article PMC10641755, “Structural basis of aggregate binding by the AAA+ disaggregase ClpG” (The Journal of Biological Chemistry, 2023)

Key:
[1] = target: Firefly Luciferase, heat-aggregated (Firefly) [luciferase: P08659]
[2] = target: ClpG N1 core domain (N1∗), residues 1 to 46 (Pseudomonas aeruginosa, 15N (13C) isotope labelled for NMR); experiment: NMR titration; unlabeled peptide 134 titrated to 15N-labeled N1∗ (80 μM N1∗, up to 240 μM peptide), 1H,15N-HSQC chemical shift perturbations, 298 K, 50 mM NaH2PO4 pH 6.5, 50 mM KCl, 2 mM DTT; details: both partners purified

Chain of Firefly Luciferase, heat-aggregated (Firefly) [luciferase: P08659] (P08659 whole entry, the tested form may be a part): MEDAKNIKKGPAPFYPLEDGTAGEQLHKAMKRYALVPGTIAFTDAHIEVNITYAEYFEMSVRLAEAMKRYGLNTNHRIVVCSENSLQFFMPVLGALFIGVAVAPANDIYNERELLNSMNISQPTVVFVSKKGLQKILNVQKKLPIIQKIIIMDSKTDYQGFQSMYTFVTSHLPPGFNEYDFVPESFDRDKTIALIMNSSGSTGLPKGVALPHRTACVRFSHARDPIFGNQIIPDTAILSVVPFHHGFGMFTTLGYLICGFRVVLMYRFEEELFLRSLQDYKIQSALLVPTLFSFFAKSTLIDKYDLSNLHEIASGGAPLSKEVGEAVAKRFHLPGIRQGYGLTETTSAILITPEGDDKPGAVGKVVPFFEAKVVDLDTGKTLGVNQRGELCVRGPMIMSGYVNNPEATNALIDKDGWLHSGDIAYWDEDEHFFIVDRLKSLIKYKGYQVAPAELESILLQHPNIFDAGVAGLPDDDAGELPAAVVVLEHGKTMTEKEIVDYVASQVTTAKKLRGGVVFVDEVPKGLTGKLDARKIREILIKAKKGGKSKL

Molecule: ClpG WT (P. aeruginosa ClpGGI) (enzyme)
- stimulation of ClpG ATPase activity by aggregated Luciferase [1]: 1.4 fold

B1: Peptide 134 (peptide)
peptide: CWFLRYLKASKVPLN
notes: Unlabeled peptide
- Kd [2]: > 50 µM
